# Measured values taken from publication PMC3814384, “YoeB–ribosome structure: a canonical RNase that requires the ribosome for its specific activity” (Nucleic Acids Research, 2013).
# B1: Escherichia coli YoeB (enzyme, UniProt P69348 1-84, looked up)
# chain: MKLIWSEESWDDYLYWQETDKRIVKKINELIKDTRRTPFEGKGKPEPLKHNLSGFWSRRITEEHRLVYAVTDDSLLIAACRYHY
# notes: In the crystal two copies (monomers A and B) sit on the ribosomal A site as a homodimer; also called YeoB; monomer A; source: E. coli BL21(DE3), co-expressed with His-tagged YefM
# Molecular target: the molecule itself
# Experiment: crystal structure; T. thermophilus 70S ribosome 4.4 uM with mRNA MOO4b (2'-O-methylated A-site codon) and tRNAfMet, YoeB added to 44 uM, buffer G (5 mM HEPES pH 7.5, 50 mM KCl, 10 mM NH4Cl, 10 mM Mg-acetate, 6 mM 2-mercaptoethanol); pre-cleavage state, 3.35 A
protein,measurement,value
B1,stoichiometry N,2
